The source of these data is the supplement of paper PMC12764529.

± gives the half width of the 95% confidence interval.

Data set [1] is described as follows: folding stability dG unfold (combined trypsin and chymotrypsin); higher = more stable. Put shortly:
(§1)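 Mini-proteins designed to be under 80 residues and free of cysteine were carried in a PA-tagged cDNA display construct and digested with trypsin and with chymotrypsin. Each protease was applied at 11 threefold-diluted concentrations, alongside a no-protease condition, before sequencing. K50 came from Bayesian fitting of the sequencing counts, and unfolding free energy was obtained by comparing it with a sequence-predicted unfolded-state K50 and a shared folded-state K50, for each protease separately or for both together. Designs were retained only if their AlphaFold2 dimer inter-PAE exceeded 15.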

Data set [2] in a line: folding stability dG unfold from chymotrypsin proteolysis; higher = more stable. Put shortly:
as §1

Data set [3] is described as follows: folding stability dG unfold from trypsin proteolysis; higher = more stable. The method in brief: as §1

As for “SAGGSAGGSAGYIKTEHEVTVMEKDPDGGTKMIEVPVKITIPIIPIPPEALEKNPEALKKFLSAGGSAGGSA [r18_114_TrROS]”, the “folding stability dG unfold” value turned out to be 0.514 ± 0.22 kcal/mol in data set [1], 0.352 ± 0.14 kcal/mol in data set [2] and 0.461 ± 0.19 kcal/mol in data set [3].

In the case of “SAGGSAGGSAGYISIMIFFVLPDGYAIMVKYTFELPPNGNPKIENIEIHVMKLPPGEPIFSAGGSAGGSAGG [r11_517_TrROS]”, the “folding stability dG unfold” value in data set [1] was determined as 5.13 ± 0.3 kcal/mol; in data set [2], 5.35 ± 0.17 kcal/mol; in data set [3], 4.22 ± 0.3 kcal/mol.

Consider “SAGGSAGGSAGYLELKISFFDPDGQILASITIWIEIVIPPPPKMEYERDPEDGNNKWEHDSAGGSAGGSAGG [r17_348_TrROS]”, for which the figures for the “folding stability dG unfold” value in data set [1], in data set [2] and in data set [3] were 2.26 ± 0.17 kcal/mol, 2.19 ± 0.056 kcal/mol and 2.49 ± 0.23 kcal/mol, respectively.

Regarding “SAGGSAGGSAIKPGETIPIKIGNFPIKITVYGDWVEITFPNGRKIRFRVAVDDGKLEIDIYFSAGGSAGGSA [r18_172_TrROS]”, the “folding stability dG unfold” value was 4.18 ± 0.14 kcal/mol in data set [1], 4.31 ± 0.14 kcal/mol in data set [2] and 4.07 ± 0.24 kcal/mol in data set [3].

With “SAGGSAGGSAIWIPSPEAADEIMDILAKKNGYKINIEPIGQDEDGGMVYEIEIVPPGQPLTSAGGSAGGSAG [r3_59_TrROS]”, the “folding stability dG unfold” value in data set [1] was 0.484 ± 0.22 kcal/mol; in data set [2], 0.397 ± 0.16 kcal/mol; in data set [3], 0.152 ± 0.066 kcal/mol.

As for “SAGGSAGGSAKAVIFFEGASIEDVVEAVKARPEEEVLVVFPDGRVLLLTKDDVVVVVPAPFSAGGSAGGSAG [r3_269_TrMRF]”, the “folding stability dG unfold” value in data set [1] amounted to 1.23 ± 0.093 kcal/mol; in data set [2], 1.22 ± 0.11 kcal/mol; in data set [3], 1.19 ± 0.052 kcal/mol.

Consider “SAGGSAGGSAKEIKLKITKVTFTENEDGTLTATFELEDGYRVTIKFNKKTNKVEIKIEPLPSAGGSAGGSAG [r3_438_TrROS_Hall]”, for which the “folding stability dG unfold” value was found to be 3.74 ± 0.15 kcal/mol in data set [1], 4.12 ± 0.082 kcal/mol in data set [2] and 2.47 ± 0.091 kcal/mol in data set [3].

For “SAGGSAGGSAKEKYILLKVKPGQKVEIEYENGEKKEVEVLEDGYLLIKVKEKNAKIKIKIKSAGGSAGGSAG [r3_334_TrROS_Hall]”, the “folding stability dG unfold” value in data set [1] stood at 2.76 ± 0.32 kcal/mol; in data set [2], 2.82 ± 0.051 kcal/mol; in data set [3], 1.85 ± 0.17 kcal/mol.

On to “SAGGSAGGSAKEVIIEIKVPPNMTEDEIKELLKKKFKGKKVEIKIEKKKNKNGTLIYKVEVKSAGGSAGGSA [r18_360_TrROS_Hall]”, for which the entries for the “folding stability dG unfold” value in data set [1], in data set [2] and in data set [3] were 2.73 ± 0.34 kcal/mol, 3.13 ± 0.12 kcal/mol and 2.6 ± 0.15 kcal/mol, respectively.

Turning to “SAGGSAGGSAKIEVEVTPLPGNKVLKIIKFENGEYIIEVFYFDPETGKIYSESEIISEEELLSAGGSAGGSA [r18_325_TrMRF]”, the “folding stability dG unfold” value in data set [1] was 2.05 ± 0.13 kcal/mol; in data set [2] it was 2.36 ± 0.044 kcal/mol; in data set [3], 1.3 ± 0.039 kcal/mol.

For “SAGGSAGGSAKIIIIEEDPEEAIRRVEELFGPGARIEPVRVVRVGDKVYVAVGIDIPASLASAGGSAGGSAG [r3_87_TrMRF]”, the figures for the “folding stability dG unfold” value in data set [1], in data set [2] and in data set [3] were 0.977 ± 0.044 kcal/mol, 0.9 ± 0.017 kcal/mol and 1.094 ± 0.0092 kcal/mol, respectively.

Take “SAGGSAGGSAKITIELDGITEVEFDEETGELYLRIEVDGKLYEIRITEDGTIEIREVPLEDSAGGSAGGSAG [r3_62_TrROS_Hall]”: the results for the “folding stability dG unfold” value in data set [1], in data set [2] and in data set [3] were 3.13 ± 0.17 kcal/mol, 3.63 ± 0.11 kcal/mol and 1.86 ± 0.097 kcal/mol, respectively.

As to “SAGGSAGGSAKITITKEDIVSYDEENKTFTIKLKDGSTIKIRVEKVKDGKIKVYDEDTGKPISAGGSAGGSA [r18_418_TrROS_Hall]”, the “folding stability dG unfold” value in data set [1] was 1.65 ± 0.18 kcal/mol; in data set [2], 1.79 ± 0.048 kcal/mol; in data set [3], 1.27 ± 0.063 kcal/mol.

On to “SAGGSAGGSAKKKKKKFKIVKIEIEVEVVKDKKTNKYYVKVKIKIYLKGNKKEFEMEFVFPSAGGSAGGSAG [r3_424_TrROS_Hall]”, for which the entries for the “folding stability dG unfold” value in data set [1], in data set [2] and in data set [3] were 3.37 ± 0.59 kcal/mol, 4.07 ± 0.24 kcal/mol and 2.29 ± 0.24 kcal/mol, respectively.

Turning to “SAGGSAGGSAKKKVEIKIEIEEVTNKDGKKYIKIKIEVKVSEEVKKELADALKKAGFKVEPSAGGSAGGSAG [r3_157_TrROS_Hall]”, the results for the “folding stability dG unfold” value in data set [1], in data set [2] and in data set [3] were 2.17 ± 0.16 kcal/mol, 2.43 ± 0.093 kcal/mol and 1.54 ± 0.091 kcal/mol, respectively.

As for “SAGGSAGGSAKKKYVFTIPVKPNTFNPEKLKKFIEKAFPEFKNYEIKVEVLPDGTAKVYIEASAGGSAGGSA [r18_65_TrMRF]”, the entries for the “folding stability dG unfold” value in data set [1], in data set [2] and in data set [3] were 3.89 ± 0.24 kcal/mol, 4.4 ± 0.11 kcal/mol and 2.69 ± 0.12 kcal/mol, respectively.

Consider “SAGGSAGGSAKKPPVYKIKIKVVNKKTKKEIEIEVEVKAGKTPEEIAKELAKKFGIEKVEIESAGGSAGGSA [r18_58_TrROS_Hall]”, for which the “folding stability dG unfold” value in data set [1] turned out to be 1.45 ± 0.27 kcal/mol; in data set [2], 1.47 ± 0.18 kcal/mol; in data set [3], 1.14 ± 0.12 kcal/mol.

Regarding “SAGGSAGGSAKPDPGAPYPWKIVEVVPIRIDMYFKFPGEPFKMDIEIPILVMVDPDNGKIFSAGGSAGGSAG [r3_391_TrROS]”, the “folding stability dG unfold” value in data set [1] came out at 2.7 ± 0.14 kcal/mol; in data set [2] it was 2.94 ± 0.064 kcal/mol; in data set [3], 2.3 ± 0.11 kcal/mol.
